Results from PMC2800238.

B1: SAV557R/SAV481R primer-template duplex (dsRNA)
RNA 1: GCUAUGUGAGAUUAAGUUAU
RNA 2: UUUUUUUUUUAUAACUUAAUCUCACAUAGC

Biological target: nsp12 (RdRp) (SARS-CoV Frankfurt-1, UniProt P0C6X7 4370-5301)
Test: EMSA

Binder | Kd
GCUAUGUGAGAUUAAGUUAU (ssRNA) [SAV557R ssRNA] | 100 nM
B1 | 130 nM
